The values below are quoted from earlier work in paper PMC7261628.

The term Ki denotes the dissociation constant of the complex between target and ligand, obtained from inhibition or displacement.

In the data set the target is Cathepsin B propeptide (prosegment) (UniProt P07858). In words: Enzyme inhibition kinetics.

Turning to Cathepsin B His110Ala mutant H110A, the Ki (pH 4.0) was 2 nM.
For the substance Cathepsin B, mature enzyme (wild type), the Ki (pH 4.0) was 82 nM and the Ki (pH 6.0) is listed as 3.7 nM.
